This is an account of results in patent publication US6794144.

What is called inhibition is the drop in the measured response relative to a control, in per cent. A word on the Kd: it is a measure of binding affinity in units of concentration. As a reminder, the IC50 is the midpoint of a concentration-inhibition curve. A high value points to lower potency.

Experiment [1] concerns the target GST-Nef (HIV-1 NL4-3 Nef containing a T71R change) (HIV-1 NL4-3) [GST: P08515]. In words: competition plate assay: unlabeled GST-SH3 vs biotinylated Hck-SH3 probe (66 nM) on immobilized GST-Nef.
Experiment [2] has the same target.
Experiment [3] concerns the target GST-NefR90 (HIV-1 Nef carrying an F90R mutation) (HIV-1) [GST: P08515].
The target in experiment [4] is GST-Nef (HIV-1 NL4-3 Nef containing a T71R change) (HIV-1 NL4-3) [GST: P08515]. In words: calculated from competition with Hck-SH3 probe on immobilized Nef, based on KD 250 nM of Hck-SH3/Nef.
Experiment [5] deals with GST-NefR90 (HIV-1 Nef carrying an F90R mutation) (HIV-1) [GST: P08515]. In words: estimated from competition by Hck-SH3 and the earlier KD 1.99 µM of Hck-SH3/NefR90.
Experiment [6] has the same target. The source holds these as a separate data set.
Experiment [7] has as its target GST-Nef (HIV-1 NL4-3 Nef containing a T71R change) (HIV-1 NL4-3) [GST: P08515]. This is another data set of the same source.

In the case of “GST-RRT.B2 (Hck-derived RRT-SH3 domain, RT-loop DSPFSF) (from UniProt P08631 62-118) (designed binder)”, in experiment [1], the ratio of competitor per probe giving 50% inhibition (1:x competitor:probe) turned out to be 22. Also, the inhibition at an equimolar probe:competitor ratio in experiment [2] worked out at 22%; in experiment [3], 26%.

As for “GST-RRT.B1 (Hck-derived RRT-SH3 domain, RT-loop WSPFPS) (from UniProt P08631 62-118) (designed binder)”, the ratio of competitor per probe giving 50% inhibition (1:x competitor:probe) in experiment [1] amounted to 26. The inhibition at an equimolar probe:competitor ratio in experiment [2] stood at 41%; in experiment [3], 9%.

For “GST-RRT.m1 (Hck-derived RRT-SH3 domain selected on NefR90, RT-loop QGFLDQ) (from UniProt P08631 62-118) (designed binder)”, the ratio of competitor per probe giving 50% inhibition (1:x competitor:probe) in experiment [1] is 0.8. The inhibition at an equimolar probe:competitor ratio in experiment [2] is less than 5%; in experiment [3], 73%.

On to “GST-RRT.A4 (Hck-derived RRT-SH3 domain, RT-loop YSWSDM) (from UniProt P08631 62-118) (designed binder)”, for which, in experiment [1], the ratio of competitor per probe giving 50% inhibition (1:x competitor:probe) was 10. In addition, the inhibition at an equimolar probe:competitor ratio came out at 34% in experiment [2] and 44% in experiment [3].

For “GST-RRT.A2 (Hck-derived RRT-SH3 domain, RT-loop FSWSDT) (from UniProt P08631 62-118) (designed binder)”, the ratio of competitor per probe giving 50% inhibition (1:x competitor:probe) in experiment [1] is 19. The figures for the inhibition at an equimolar probe:competitor ratio in experiment [2] and in experiment [3] were 20% and 53%, respectively.

Take “GST-RRT.C4 (Hck-derived RRT-SH3 domain, RT-loop DSWFPW) (from UniProt P08631 62-118) (designed binder)”: the ratio of competitor per probe giving 50% inhibition (1:x competitor:probe) in experiment [1] worked out at 14. The inhibition at an equimolar probe:competitor ratio in experiment [2] stood at 10%; in experiment [3], 19%.

For “GST-RRT.m2 (Hck-derived RRT-SH3 domain selected on NefR90, RT-loop NAFLPS) (from UniProt P08631 62-118) (designed binder)”, the ratio of competitor per probe giving 50% inhibition (1:x competitor:probe) in experiment [1] amounted to 2. Besides, the inhibition at an equimolar probe:competitor ratio in experiment [2] was less than 5%; in experiment [3], 73%.

With “GST-RRT.A1 (Hck-derived RRT-SH3 domain, RT-loop VSWSPD) (from UniProt P08631 62-118) (designed binder)”, the ratio of competitor per probe giving 50% inhibition (1:x competitor:probe) in experiment [1] was found to be 35. The Kd in experiment [4] is 7 nM; in experiment [5], less than 100 nM. Besides, the figures for the inhibition at an equimolar probe:competitor ratio in experiment [2] and in experiment [3] were 55% and 52%, respectively.

With “GST-RRT.C2 (Hck-derived RRT-SH3 domain, RT-loop YSFFPW) (from UniProt P08631 62-118) (designed binder)”, in experiment [1], the ratio of competitor per probe giving 50% inhibition (1:x competitor:probe) stood at 16. For the same substance, the figures for the inhibition at an equimolar probe:competitor ratio in experiment [2] and in experiment [3] were 20% and 13%, respectively.

Regarding “GST-RRT.m3 (Hck-derived RRT-SH3 domain selected on NefR90, RT-loop EAWSPL) (from UniProt P08631 62-118) (designed binder)”, in experiment [1], the ratio of competitor per probe giving 50% inhibition (1:x competitor:probe) came to 17. For the same substance, the inhibition at an equimolar probe:competitor ratio in experiment [2] was 22%; in experiment [3], 62%.

As to “GST-RRT.D1 (Hck-derived RRT-SH3 domain, RT-loop SSFYSS) (from UniProt P08631 62-118) (designed binder)”, the ratio of competitor per probe giving 50% inhibition (1:x competitor:probe) in experiment [1] stood at 22. Further, the figures for the inhibition at an equimolar probe:competitor ratio in experiment [2] and in experiment [3] were 45% and 17%, respectively.

Consider “GST-RRT.m4 (Hck-derived RRT-SH3 domain selected on NefR90, RT-loop ESYSEW) (from UniProt P08631 62-118) (designed binder)”, for which the inhibition at an equimolar probe:competitor ratio in experiment [2] is less than 5%; in experiment [3], 46%.

Regarding “GST-RRT.B4 (Hck-derived RRT-SH3 domain, RT-loop FSPFDW) (from UniProt P08631 62-118) (designed binder)”, in experiment [1], the ratio of competitor per probe giving 50% inhibition (1:x competitor:probe) was determined as 21. Besides, the inhibition at an equimolar probe:competitor ratio is 41% in experiment [2] and 37% in experiment [3].

Turning to “GST-RRT.B6 (Hck-derived RRT-SH3 domain, RT-loop YSPFSW) (from UniProt P08631 62-118) (designed binder)”, the ratio of competitor per probe giving 50% inhibition (1:x competitor:probe) in experiment [1] stood at 37. In addition, in experiment [4], the Kd is 7 nM. Besides, the inhibition at an equimolar probe:competitor ratio in experiment [2] stood at 51%; in experiment [3], 14%.

For the substance “GST-RRT.C1 (Hck-derived RRT-SH3 domain, RT-loop TSPFPW) (from UniProt P08631 62-118) (designed binder)”, the ratio of competitor per probe giving 50% inhibition (1:x competitor:probe) in experiment [1] was 31. For the same substance, the Kd in experiment [4] is 7 nM. The inhibition at an equimolar probe:competitor ratio in experiment [2] was 39%; in experiment [3], less than 5%.

With “GST-Hck-SH3 (native Hck SH3 domain, GST fusion protein) (from UniProt P08631 78-138)”, the ratio of competitor per probe giving 50% inhibition (1:x competitor:probe) in experiment [1] turned out to be 1. Also, in experiment [6], the IC50 was more than 1100 nM and the fold molar excess over the probe needed for 50% inhibition is more than 16 fold. In experiment [7], this substance came in with an IC50 of more than 850 nM and a fold excess over the probe needed for 50% inhibition of more than 100 fold. Moreover, the inhibition at an equimolar probe:competitor ratio in experiment [2] was less than 5%. The inhibition at an equimolar probe:competitor ratio in experiment [3] was less than 5%.

“GST-RRT.C3 (Hck-derived RRT-SH3 domain, RT-loop YSDFPW) (from UniProt P08631 62-118) (designed binder)”: in experiment [1], the ratio of competitor per probe giving 50% inhibition (1:x competitor:probe) was determined as 26. Also, the inhibition at an equimolar probe:competitor ratio in experiment [2] came out at 42%; in experiment [3] it was 20%.
